Reference: the Human Domainome abundance scans (Beltran et al. 2025)
± gives the uncertainty stated by the source.

B1: Transcription intermediary factor 1-beta, residues 620 to 671; numbered along this chain, Q13263 (parent)
chain: TLDDSATICRVCQKPGDLVMCNQCEFCFHLDCHLPALQDVPGEEWSCSLCHV
B2: Zinc finger MYM-type protein 2, residues 463 to 506; numbered along this chain, Q9UBW7 (parent)
chain: IMNCCEQCGEYLPSKGAGNNVLVIDGQQKRFCCQSCVSEYKQVG

Variants of: B1
Assay: abundance fitness (aPCA) (normalised: wild type 0, dead -1); higher = more abundant; growth selection in yeast, the domain comes from the species named
Settings: Homo sapiens

Abundance fitness, by site and new letter:
H51: N -0.528 ± 0.21 | R 0.081 ± 0.11 | C -0.281 ± 0.22 | L -0.063 ± 0.12 | I -0.264 ± 0.18 | K -0.415 ± 0.17 | T 0.31 ± 0.17 | W -0.345 ± 0.19 | E 0.107 ± 0.15 | Y -0.553 ± 0.41 | Q 0.148 ± 0.16 | V -0.023 ± 0.094 | G -0.302 ± 0.096 | F -0.452 ± 0.24 | D 0.041 ± 0.11 | M 0.021 ± 0.13 | S 0.109 ± 0.11 | P 0.248 ± 0.17
V52: T -0.11 ± 0.21 | Y -0.284 ± 0.39 | C -0.289 ± 0.31 | F -0.18 ± 0.19 | H -0.479 ± 0.44 | S 0.075 ± 0.27 | A 0.197 ± 0.14 | D -0.267 ± 0.23 | L -0.369 ± 0.17 | R 0.137 ± 0.15 | I -0.354 ± 0.13 | P 0.041 ± 0.17 | G -0.32 ± 0.19
C50: Q -0.329 ± 0.16 | R -0.214 ± 0.11 | T -0.386 ± 0.13 | S -0.462 ± 0.12 | N -0.505 ± 0.35 | Y -1.03 ± 0.34 | V -0.513 ± 0.1 | P 0.037 ± 0.15

Variants of: B2
Assay: as above
Settings: Homo sapiens

Abundance fitness of substitutions, site by site:
Q7: D -0.466 ± 0.12 | N -0.436 ± 0.27 | T -0.139 ± 0.13 | E -0.26 ± 0.094 | K -0.135 ± 0.26 | L -0.226 ± 0.076
F31: Q -0.119 ± 0.097 | G -0.185 ± 0.087 | Y -0.144 ± 0.12 | P -0.223 ± 0.094 | W -0.498 ± 0.092 | L -0.248 ± 0.083 | H -0.273 ± 0.16
G44: T -0.118 ± 0.096 | L -0.262 ± 0.17
C4: A -0.147 ± 0.086 | H 0.019 ± 0.18 | L -0.09 ± 0.07 | P -0.126 ± 0.086 | T -0.021 ± 0.085 | Y -0.45 ± 0.17 | S 0.25 ± 0.11
Y11: A 0.176 ± 0.092 | S 0.252 ± 0.099 | T 0.319 ± 0.098 | I -0.145 ± 0.1 | N 0.28 ± 0.097 | L 0.034 ± 0.1 | D 0.282 ± 0.11 | V 0.117 ± 0.077
S38: M -0.038 ± 0.11 | C -0.108 ± 0.14 | P -0.329 ± 0.19 | I -0.106 ± 0.25 | H -0.183 ± 0.32 | K -0.025 ± 0.11 | W -0.197 ± 0.092 | L -0.038 ± 0.081
Y40: F -0.334 ± 0.4 | D -0.057 ± 0.18 | P 0.192 ± 0.16 | L -0.163 ± 0.089 | V -0.108 ± 0.1 | N -0.309 ± 0.39 | W 0.002 ± 0.11 | Q 0.067 ± 0.12 | T 0.11 ± 0.11
S14: Q -0.123 ± 0.12 | K -0.283 ± 0.16 | E 0.13 ± 0.19 | D 0.241 ± 0.13 | W -0.454 ± 0.092 | P 0.33 ± 0.22
E6: G -0.184 ± 0.076 | Q -0.116 ± 0.15 | A -0.197 ± 0.082 | V -0.256 ± 0.1 | Y -0.267 ± 0.17 | K -0.231 ± 0.1 | W -0.375 ± 0.09
C5: W -1.5 ± 0.12 | P -0.854 ± 0.13 | R -0.697 ± 0.08 | T -0.587 ± 0.13 | D -0.637 ± 0.099 | G -0.7 ± 0.068 | V -0.884 ± 0.094 | K -0.38 ± 0.16 | A -0.65 ± 0.09
Q42: H -0.08 ± 0.12 | G 0.076 ± 0.077 | W -0.398 ± 0.14 | L -0.101 ± 0.11 | N 0.438 ± 0.38 | A 0.109 ± 0.078 | M -0.119 ± 0.17
I24: R -0.085 ± 0.077 | P -0.126 ± 0.16 | V -0.088 ± 0.12 | C -0.124 ± 0.14 | M -0.122 ± 0.16 | S -0.09 ± 0.084
Q28: N -0.29 ± 0.18 | A -0.133 ± 0.086 | G -0.239 ± 0.072 | C -0.47 ± 0.15 | Y -0.305 ± 0.16 | W -0.405 ± 0.094 | T -0.032 ± 0.1
E10: V -0.86 ± 0.1 | I -0.66 ± 0.28 | L -1.08 ± 0.15 | N -0.389 ± 0.14
D25: P -0.456 ± 0.14 | W -0.618 ± 0.21 | C -0.25 ± 0.12 | A -0.117 ± 0.12 | L -0.455 ± 0.13 | K -0.155 ± 0.14 | Q -0.367 ± 0.17 | T -0.06 ± 0.28 | E -0.11 ± 0.085 | R -0.229 ± 0.11
C36: V -0.463 ± 0.091 | S -0.45 ± 0.086 | N -0.273 ± 0.34 | R -0.37 ± 0.079 | D -0.262 ± 0.16 | L -0.423 ± 0.088
A17: E 0.116 ± 0.096 | H -0.337 ± 0.15 | L -0.188 ± 0.091 | G -0.095 ± 0.095 | D 0.012 ± 0.15
E39: M 0.087 ± 0.13 | L -0.265 ± 0.14 | P -0.285 ± 0.13 | T 0.093 ± 0.13 | S 0.054 ± 0.1 | A 0.09 ± 0.076 | C 0.204 ± 0.11 | V 0.086 ± 0.087 | Y 0.032 ± 0.15
V37: Q -0.024 ± 0.14 | E 0.109 ± 0.1 | P -0.135 ± 0.13 | R -0.112 ± 0.072 | A -0.063 ± 0.083 | W -0.093 ± 0.086
L22: W -0.187 ± 0.13 | Y 0.165 ± 0.14 | P -0.059 ± 0.17 | C -0.258 ± 0.13 | N -0.163 ± 0.41 | V -0.016 ± 0.09 | Q -0.057 ± 0.13 | I -0.142 ± 0.18
K15: W -0.124 ± 0.093 | V 0.011 ± 0.1 | H 0.119 ± 0.15 | A 0.089 ± 0.077 | M 0.3 ± 0.19 | S 0.114 ± 0.13 | P 0.189 ± 0.096 | Y 0.07 ± 0.21
G9: Y 0.102 ± 0.15
M2: G -0.148 ± 0.074 | P -0.376 ± 0.15 | I -0.145 ± 0.1 | K 0.124 ± 0.1 | T -0.059 ± 0.097 | H -0.25 ± 0.19 | E 0.118 ± 0.12
N20: R -0.285 ± 0.086 | M -0.038 ± 0.1 | Y -0.065 ± 0.12 | V -0.019 ± 0.083
P13: L -0.438 ± 0.2 | G -0.278 ± 0.1 | M -0.59 ± 0.14
G16: A -0.06 ± 0.1 | V -0.272 ± 0.14 | S -0.047 ± 0.12 | H -0.249 ± 0.099 | Q 0.07 ± 0.1 | L -0.214 ± 0.08 | R -0.562 ± 0.078 | C -0.113 ± 0.085 | W -0.319 ± 0.093
S35: F -0.226 ± 0.19 | A -0.072 ± 0.074 | P -0.058 ± 0.13 | H -0.091 ± 0.2 | V -0.092 ± 0.1 | E 0.006 ± 0.1
V23: G -0.107 ± 0.076 | E 0.204 ± 0.12 | H -0.079 ± 0.12 | D -0.017 ± 0.1
L12: G -0.385 ± 0.068 | R -0.498 ± 0.072 | W -0.467 ± 0.089 | E -0.004 ± 0.077 | T -0.28 ± 0.097 | M -0.46 ± 0.14 | C -0.384 ± 0.11 | N -0.482 ± 0.17
R30: M 0.068 ± 0.091 | H -0.464 ± 0.34 | D 0.165 ± 0.12 | V 0.197 ± 0.075 | Q 0.193 ± 0.085 | P 0.092 ± 0.089 | Y -0.354 ± 0.41 | S 0.111 ± 0.1
N3: C -0.215 ± 0.36 | E -0.036 ± 0.087 | V -0.366 ± 0.1 | Q -0.232 ± 0.09 | A -0.09 ± 0.073 | D -0.045 ± 0.12
G26: E -0.077 ± 0.098 | I -0.296 ± 0.25 | T -0.291 ± 0.1 | V -0.243 ± 0.1 | M -0.384 ± 0.15 | D 0.183 ± 0.34 | W -0.337 ± 0.075 | K -0.251 ± 0.1
K41: Y -0.41 ± 0.25 | T 0.209 ± 0.13 | V -0.221 ± 0.094 | R 0.03 ± 0.086 | F -0.285 ± 0.15 | P 0.014 ± 0.083 | Q 0.006 ± 0.092 | G 0.042 ± 0.09
Q34: W -0.226 ± 0.082 | G -0.017 ± 0.072 | D 0.013 ± 0.12 | C -0.113 ± 0.11 | L -0.223 ± 0.097 | M 0.044 ± 0.11 | F -0.039 ± 0.13 | P -0.033 ± 0.11 | I -0.448 ± 0.21
Q27: G -0.039 ± 0.079 | V -0.144 ± 0.095 | W -0.198 ± 0.1 | C -0.084 ± 0.17 | S -0.172 ± 0.12 | P -0.218 ± 0.12 | R -0.206 ± 0.091 | E -0.1 ± 0.11
N19: G 0.006 ± 0.08 | I -0.141 ± 0.13 | E 0.338 ± 0.14 | R -0.249 ± 0.087 | C -0.069 ± 0.12 | W -0.212 ± 0.11 | Q -0.107 ± 0.12 | L -0.051 ± 0.1
C8: S -0.337 ± 0.1 | L -1.05 ± 0.11 | M -1.1 ± 0.23 | F -1.18 ± 0.18 | R -0.611 ± 0.089 | Y -0.311 ± 0.48
G18: S -0.347 ± 0.18 | T -0.377 ± 0.17 | P 0.007 ± 0.19 | C -0.247 ± 0.15
C32: V -0.36 ± 0.077 | F -0.653 ± 0.36 | G -0.313 ± 0.067 | E -0.339 ± 0.085 | S -0.398 ± 0.084 | K -0.439 ± 0.13 | N -0.655 ± 0.26 | P -0.454 ± 0.1 | M -0.537 ± 0.12 | T -0.433 ± 0.085 | R -0.298 ± 0.073
C33: M -0.201 ± 0.12 | F -0.517 ± 0.18 | H -0.09 ± 0.12 | R -0.121 ± 0.089
K29: G -0.234 ± 0.082 | I -0.241 ± 0.14 | S -0.329 ± 0.11 | W -0.432 ± 0.086 | A -0.235 ± 0.085 | P -0.499 ± 0.12 | N -0.464 ± 0.21 | T -0.313 ± 0.14 | M -0.018 ± 0.12 | C -0.752 ± 0.26 | L -0.067 ± 0.085
I1: D 0.231 ± 0.19 | Y -0.402 ± 0.21 | V 0 ± 0.1 | P -0.222 ± 0.33 | R -0.255 ± 0.094
V43: W -0.296 ± 0.16 | L -0.222 ± 0.15 | S -0.159 ± 0.16 | E -0.067 ± 0.091 | H -0.361 ± 0.34 | D -0.123 ± 0.34
V21: P -0.402 ± 0.17 | Q -0.172 ± 0.13 | C -0.302 ± 0.23 | M -0.103 ± 0.11 | D -0.014 ± 0.13 | S -0.153 ± 0.1
